Assay results published in patent US20170304457A1 (MIT, published 2017).

Key:
Assay in all cases: cell-based or functional assay
P-1NLP-P = biological target: P-1NLP-P
P-2NLP-P = biological target: P-2NLP-P
P-cNsp1-P = biological target: P-cNsp1-P
P-cNsp1-P, sequence (chain, as listed by the source): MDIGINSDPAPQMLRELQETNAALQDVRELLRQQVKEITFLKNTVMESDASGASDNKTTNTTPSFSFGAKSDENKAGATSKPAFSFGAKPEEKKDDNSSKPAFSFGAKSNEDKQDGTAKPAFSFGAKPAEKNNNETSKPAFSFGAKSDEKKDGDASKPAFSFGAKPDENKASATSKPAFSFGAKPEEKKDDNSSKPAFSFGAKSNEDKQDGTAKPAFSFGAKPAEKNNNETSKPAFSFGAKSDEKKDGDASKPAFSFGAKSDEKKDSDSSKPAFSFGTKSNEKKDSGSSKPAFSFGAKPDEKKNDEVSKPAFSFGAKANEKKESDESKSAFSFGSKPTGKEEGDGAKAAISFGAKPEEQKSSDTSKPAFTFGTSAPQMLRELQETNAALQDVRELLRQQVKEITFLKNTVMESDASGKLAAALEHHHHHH

P-2NLP-P, sequence (chain, as listed by the source): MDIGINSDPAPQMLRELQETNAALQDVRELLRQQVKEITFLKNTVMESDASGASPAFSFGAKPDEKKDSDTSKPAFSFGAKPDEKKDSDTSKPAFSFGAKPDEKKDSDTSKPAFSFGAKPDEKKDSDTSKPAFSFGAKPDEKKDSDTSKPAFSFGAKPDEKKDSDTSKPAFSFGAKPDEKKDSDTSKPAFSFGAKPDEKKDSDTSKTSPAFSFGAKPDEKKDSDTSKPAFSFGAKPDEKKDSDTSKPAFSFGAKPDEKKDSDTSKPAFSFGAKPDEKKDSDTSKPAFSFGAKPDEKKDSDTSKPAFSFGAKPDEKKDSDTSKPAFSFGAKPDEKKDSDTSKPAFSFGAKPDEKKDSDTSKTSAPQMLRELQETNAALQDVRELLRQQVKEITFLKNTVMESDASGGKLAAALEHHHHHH
P-1NLP-P, sequence (chain, as listed by the source): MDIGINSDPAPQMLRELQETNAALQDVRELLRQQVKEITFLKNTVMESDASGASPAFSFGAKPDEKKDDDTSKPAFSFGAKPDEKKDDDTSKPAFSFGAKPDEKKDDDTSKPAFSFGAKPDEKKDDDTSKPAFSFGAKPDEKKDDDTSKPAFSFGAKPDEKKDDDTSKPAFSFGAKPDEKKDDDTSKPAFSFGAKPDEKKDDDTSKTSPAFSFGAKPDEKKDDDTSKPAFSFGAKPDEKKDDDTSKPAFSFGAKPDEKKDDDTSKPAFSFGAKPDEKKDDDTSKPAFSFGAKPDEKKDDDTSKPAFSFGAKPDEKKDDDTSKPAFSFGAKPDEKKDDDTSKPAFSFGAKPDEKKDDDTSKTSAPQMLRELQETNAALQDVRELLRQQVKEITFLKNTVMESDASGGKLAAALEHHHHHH

B1: importin β (receptor, UniProt Q06142 1-861, looked up, not shown: small tags and cut ends)
chain: MSTAEFAQLLENSILSPDQNIRLTSETQLKKLSNDNFLQFAGLSSQVLIDENTKLEGRILAALTLKNELVSKDSVKTQQFAQRWITQVSPEAKNQIKTNALTALVSIEPRIANAAAQLIAAIADIELPHGAWPELMKIMVDNTGAEQPENVKRASLLALGYMCESADPQSQALVSSSNNILIAIVQGAQSTETSKAVRLAALNALADSLIFIKNNMEREGERNYLMQVVCEATQAEDIEVQAAAFGCLCKIMSLYYTFMKPYMEQALYALTIATMKSPNDKVASMTVEFWSTICEEEIDIAYELAQFPQSPLQSYNFALSSIKDVVPNLLNLLTRQNEDPEDDDWNVSMSAGACLQLFAQNCGNHILEPVLEFVEQNITADNWRNREAAVMAFGSIMDGPDKVQRTYYVHQALPSILNLMNDQSLQVKETTAWCIGRIADSVAESIDPQQHLPGVVQACLIGLQDHPKVATNCSWTIINLVEQLAEATPSPIYNFYPALVDGLIGAANRIDNEFNARASAFSALTTMVEYATDTVAETSASISTFVMDKLGQTMSVDENQLTLEDAQSLQELQSNILTVLAAVIRKSPSSVEPVADMLMGLFFRLLEKKDSAFIEDDVFYAISALAASLGKGFEKYLETFSPYLLKALNQVDSPVSITAVGFIADISNSLEEDFRRYSDAMMNVLAQMISNPNARRELKPAVLSVFGDIASNIGADFIPYLNDIMALCVAAQNTKPENGTLEALDYQIKVLEAVLDAYVGIVAGLHDKPEALFPYVGTIFQFIAQVAEDPQLYSEDATSRAAVGLIGDIAAMFPDGSIKQFYGQDWVIDYIKRTRSGQLFSQATKDTARWAREQQKRQLSL
absorption of cargo-importin β complexes by the hydrogel relative to inert molecules in an hour (capillary transport assay, 20 w/v % gel) (P-1NLP-P): 2.3 times more than inert molecules
accumulation of cargo-carrier complexes relative to MBP-mCherry (without the IBB domain) over an hour, 20 w/v % gel (P-1NLP-P): 3 times more than MBP-mCherry
absorption of cargo-importin β complexes by the hydrogel relative to inert molecules in an hour (capillary transport assay, 20 w/v % gel) (P-2NLP-P): 3.8 times more than inert molecules
accumulated green fluorescence intensity compared to the intensity without importin β, relative to the P-1NLP-P gel (P-2NLP-P): ~2 fold of P-1NLP-P gel
accumulation of cargo-carrier complexes in the gel relative to MBP-mCherry (no IBB domain) over three hours, 10 w/v % gel (P-2NLP-P): 5.2 times more than MBP-mCherry
accumulation of cargo-carrier complexes in the gel relative to MBP-mCherry (no IBB domain) over three hours, 20 w/v % gel (P-2NLP-P): 10.2 times more than MBP-mCherry
accumulation of cargo-carrier complexes relative to MBP-mCherry (without the IBB domain) over an hour, 20 w/v % gel (P-2NLP-P): 5.3 times more than MBP-mCherry
absorption of cargo-importin β complexes by the hydrogel relative to inert molecules in an hour (capillary transport assay, 20 w/v % gel) (P-cNsp1-P): 3.9 times more than inert molecules
